Measurements: paper PMC5477544, “Structural and mechanistic basis of differentiated inhibitors of the acute pancreatitis target kynurenine-3-monooxygenase” (Nature Communications, 2017)

Substrate: Nc1ccccc1C(=O)CC(N)C(=O)O
Assay: purified protein, by the assay type
Details: other: human KMO, 200 μM NADPH

B1: human KMO (Homo sapiens) (protein)
chain: MDSSVIQRKKVAVIGGGLVGSLQACFLAKRNFQIDVYEAREDTRVATFTRGRSINLALSHRGRQALKAVGLEDQIVSQGIPMRARMIHSLSGKKSAIPYGTKSQYILSVSRENLNKDLLTAAEKYPNVKMHFNHRLLKCNPEEGMITVLGSDKVPKDVTCDLIVGCDGAYSTVRSHLMKKPRFDYSQQYIPHGYMELTIPPKNGDYAMEPNYLHIWPRNTFMMIALPNMNKSFTCTLFMPFEEFEKLLTSNDVVDFFQKYFPDAIPLIGEKLLVQDFFLLPAQPMISVKCSSFHFKSHCVLLGDAAHAIVPFFGQGMNAGFEDCLVFDELMDKFSNDLSLCLPVFSRLRIPDDHAISDLSMYNYIEMRAHVNSSWFIFQKNMERFLHAIMPSTFIPLYTMVTFSRIRYHEAVQRWHWQKKVINKGLFFLGSLIAISSTYLLIHYMSPRSFLRLRRPWNWIAHFRNTTCFPAKAVDSLEQISNLISR
Km: 2 µM
kcat: 0.24 s⁻¹
